Results from PMC11485096.

Target: AtoB (Aspergillus ochraceus LZDX-32-15)
Test: crystal structure

## AtoB (enzyme)
  stoichiometry N: 2
